Results as given in US20240117011A1 (US Dept. of Health and Human Services, published 2024).

B1: A19-61.1 (antibody, V domains shown)
VH: QVQLVESGGGVVQPGRSLRLSCAASGFTFSSYAFHWVRQAPGKGLEWVAVISYDGSNQYYADSVKGRFTISRDNSKNTLYLQMNSLRADDTAVYYCARDLAIAVAGTWHYYNGMDVWGQGTTVTVSS
VL: DIQMTQSPSSVSASVGDRVIITCRASQGISSWLAWYQQKPGKAPKVLIYDASSLQSGVPSRFSGSGYGTDFTLTISSLQPEDSATYYCQQAKSFPITFGQGTRLEIK
B2: A20-29.1 (antibody, V domains shown)
VH: EVQLVESGGGLVQPGRSLRLSCAASGFTFDDYAMHWVRQTPGKGLEWVSGISWNSGDIDYADSVKGRFTISRDNAKNSLYLQMNSLRTEDTALYYCTKGWFGEFFGAGSICDYWGQGTLVTVSS
VL: EIVMTQSPATLSVSPGERATLSCRASQSVSNNLAWYQQKPGQAPRLLIYGASTRATGIPARFSGSGSGTEFTLTISSLQSEDFAVYYCQQYNNWPLFGQGTKVEIK
B3: A19-46.1 (antibody, V domains shown)
VH: QVQLVESGGGVVQPGRSLRLSCAASGFTLSSYGMHWVRQAPGKGLEWVAVISYDGSNKYYVDSVKGRFTISRDNSKNTLYLQMNSLRAEDTAVYYCARGWAYWELLPDYYYGMDVWGQGTTVTVSS
VL: QTVVTQEPSFSVSPGGTVTLTCGLSSGSVSTAYFPSWYQQTPGQAPRTLIYGTNTRSSGVPDRFSGSILGNKAALTITGAQADDESDYYCVLYMGRGIVVFGGGTKLTVL
B4: A20-36.1 (antibody, V domains shown)
VH: QVQLVESGGGVVQPGRSLRLSCAASGFIFSSYGVHWVRQAPGKGLEWVAVIWHDESNKDYADSVKGRFTISRDNSKNTVYLQMNSLRAEDTAMYYCARDGYDFLTGAYELDYWGQGTLVTVSS
VL: SYELTQPPSVSVSPGQTARITCSGDALPKQYAYWYQQKPGQAPVVVIYKDSERPSGIPERFSGSSSGTTVTLTISGVQAEDEADYYCQSADSSGTWVFGGGTKLTVL
B5: A20-9.1 (antibody, V domains shown)
VH: QVQLVESGGGVVQPGRSLRLSCAASGFTFSSYGMHWVRQAPGKGLEWVAFISYDGSNKYYADSVKGRFTISRDNSKNTLYLQMNSLRAEDTAVYYCAKDYWSVAAGTSWFDPWGQGTLVSVSS
VL: B4 VL
B6: A19-1.1 (antibody, V domains shown)
VH: QVQLVESGGGVVQPGRSLRLSCAASGFTFTNYAMHWVRQAPGKGLEWVAVISNDGSDKYYADSVKGRFTISRDNSKSTVYLQMSSLRPEDTAVYFCARDPPQVHWSLDYWGQGTLVTVSS
VL: QSALTQPPSASGSPGQSVTISCTGTSSDVGDYNYVSWYQHHPGKAPKLIIYDVSKRPSGVPDRFSGSKSGDTASLTVSGLQAEDEADYYCSSYAGNNNAVFGTGTKVTVL
B7: A23-97.1 (antibody, V domains shown)
VH: QVQLVESGGGVVQPGGSLRLSCAASGFTFSSFGMHWVRQAPGKGLEWVAFIRYDGSNKYYADSVKGRFTISRDNSKNTLYLQMNSLRAEDTAVYYCAKTELYYYDSSGPLGWGQGTLVTVSS
VL: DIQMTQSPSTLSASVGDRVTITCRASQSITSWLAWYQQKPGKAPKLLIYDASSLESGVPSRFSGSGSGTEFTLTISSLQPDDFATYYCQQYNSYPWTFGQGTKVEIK
B8: A19-82.1 (antibody, V domains shown)
VH: QVQLVESGGGVVQPGRSLRLSCVVSGLIFSTYDMHWVRQAPGKGLEWVAVISYDGSYKHYADSVKGRFTISRDSSKNTLYLQMNSLRPEDTAVYYCAKGEGVVAGTGKFDYWGQGTLVTVSS
VL: SYVLTQPPSVSVAPGQTARITCGGNNIGSKSVHWYQQKPGQAPVLVVYDDSDRPSGIPERFSGSNSGNTATLTISRVEAGDEADYYCQVWDGSGDPWVFGGGTKLTVL
B9: A23-105.1 (antibody, V domains shown)
VH: QVQLVESGGGVVQPGRSLRLSCAASGFTFSNYAIHWVRQAPGKGLEWVAVISYDGSNKYYADSVKGRFTISRDNSKNTLYLEMNSLRAEDMAVYYCARVGPYQYDSSAAFDIWGQGTMVTVSS
VL: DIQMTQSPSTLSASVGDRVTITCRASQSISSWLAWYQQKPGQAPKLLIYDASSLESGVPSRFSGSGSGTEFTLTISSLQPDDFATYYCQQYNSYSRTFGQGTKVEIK
B10: A19-30.1 (antibody, V domains shown)
VH: QVQLVESGGGVVQPGRSLRLSCAASGFTFSNYGMHWVRQAPGKGLEWLAVISYDGSNKYYADSVKGRFTISRDNSKNTLFLQMNSLRAEDTAVYYCAKESQFGELFEALDYWGQGTLVTVSS
VL: SYELTQPPSVSVSPGQTARITCSGDALPRKYAFWYQQKSGQAPVLVISEDSKRPSGIPERFSGSSSGTMATLTISGAQVEDEADYYCYSTDSSGNHRVFGGGTKLTVL
B11: A23-113.1 (antibody, V domains shown)
VH: QVHLEESGGAVVQPGRSLRLSCAASGFTFSSYGMHWVRQAPGKGLEWVAVISHDGSYKYYADSVKGRFTISRDNSKDTLYLQTNSLRAEDTAMYYCAKSYGYWMAYFDYWGQGTLVTVSS
VL: DIQMTQSPSSLSASVGDRVTITCRASQDISNYLAWYQQKPGKVPKLLIYAASTLQSGVPSRFSGSGSGTDFTLTISSLQPEDVATYYCQKYNSPWHTFGGGTKVEIK
B12: A23-80.1 (antibody, V domains shown)
VH: QVQLVQSGAEVKKPGASVKVSCKASGYTFTSNGVTWVRQAPGQGLEWMGWISTYNGDTNYAQKLQGRVSMTTDTSTRTVYMELRSLRSDDTAVYYCARVGDAYCSGGSCYHFDYWGQGTLVTVSS
VL: EIVMTQSPATLSVSPGERATLSCRASQSVSTNLAWYQQKPGQAPRLLIYGASTRATGIPARFSGSGSGTEFTLTISSLQSEDFALYYCQQYDNWPPEFTFGPGTKVDIK

Key:
[1] = target: full-length SARS-CoV-2 spike, WA-1 / Wuhan-1 (S wt) (SARS-CoV-2, UniProt P0DTC2 14-1273); test: cell-based or functional assay
[2] = target: SARS-CoV-2 NTD (SARS-CoV-2, UniProt P0DTC2 14-305); test: ELISA
[3] = target: SARS-CoV-2 RBD (SARS-CoV-2, UniProt P0DTC2 319-541); test: ELISA
[4] = target: T1, SARS-CoV-2 S1 (SARS-CoV-2, UniProt P0DTC2 14-681); test: ELISA
T1 construct: range 1-681

Binder | pseudotyped virus neutralization IC50 [1] [µg/mL] | pseudotyped virus neutralization IC80 [1] [µg/mL] | binding result [2] | binding result [3] | binding result [4]
B1 | 0.0709 | 0.163 | no binding |  | 
B2 | 0.348 | 1.36 |  |  | 
B3 | 0.0398 | 0.129 |  |  | 
B4 | 1.39 | 3.76 | no binding | no binding | 
B5 | 1.21 |  | no binding | no binding | 
B6 | 0.126 | 0.53 | no binding |  | 
B7 | 0.484 | 5.28 | no binding |  | 
B8 | 0.72 | 5.93 | no binding |  | 
B9 | 0.0889 | 0.228 | no binding |  | 
B10 |  |  | no binding | binds | binds
B11 | 0.393 | 7.81 | no binding |  | 
B12 | 0.321 |  | no binding |  | 
